Source: the DeepSol protein solubility set

Assay: soluble on expression in E. coli; label from the status in PepcDB or PDB records

Soluble on expression in E. coli, not soluble:
MGSDKIHHHHHHMLKVSDLTVGNNFVHNVSFEVNPGERVGIIGESGSGKSLTALSIMGLTDLPTTGQITFNGKPSATFRGTRIAMVFQEPMSALNPLMRIGRQIEEMMTLHGASKKDARARLKSLLIDVSLPERTASAYPHELSGGQRQRALIAMALANDPDLLICDEPTTALDVVVQKQIVDLLLRLTKERGTALLFITHDLGLIARTCERLLVMKSGETVERGDTEAILRSPAHSYTQQLLDASILDQPEIASDSGAPVVIDVEEASKSFKETTALHKVSLAVRKGDLLGIVGGSGSGKTTLLKLIAGLDKPTTGTVAVTGGVQMVFQDPQSSLNPRMKIKDIVAEPLLGWNAAEKTTRVAEVITQVGLSPDVLDRYPHEFSGGQRQRISIARALAIKPAILLADEPVSALDVSVRKQVLDLLQQLVEEYGITLVFVSHDLAVVRHLCTTVWVMEQGRVLEQGPIDSVYDHPQTEYTKELLDAVPRLSL
MGSDKIHHHHHHMLLDTNIFSSFEDYSDISGKLNELSRRLNPKSILLKHPKSIEYLNTLDEDTKRILLSKLAFCDLLNDYPSPINDLEFNTNVGYLKGTNNDLENNLLYAVYTNSVTYLITENRMIHQKSTKLGLKDRVLYLNEALDFFKEFYSIQKRQILPQIKQRPITKVDVDDQIFDSLREEYPEFNNWYNEKAHLGRECWCYIKESGKLGAVLIFNGEDFDVIKTDPLLPEKRRFKICTFKVDQVGYKLGELLLKKAFDYCIDNSITETYLTHFAKSEFDYLVNLITEYGFIDIGTNENGENVFFKDLNPTPNQLMFCDYKDIFKKYYPLFYDGNRVKKLVVPIRPQYHEKLFTDYVKRTSITLNEYFGDFIIEGNTIKKAYISHSPIKNLKKGDILLFYRSEDHKELTSLGVLEEFKTNLTSPEEIINMVGKRTVYSSREIEEIVKKPASVMIFTMHLHLKSPIPLTVLKENNILKGPPQTITEITHGAYEKIRDLGGINDNLTIH
MGSDKIHHHHHHMLLEIRHVTQYHYERPVRESLMELWMQPQKTARQRLVSFELDLNPAAQVFSYADSFGNAVYHFDVPQPHDNLTIIARSAVETESPGERPDQLDMGEWDRLRSEFVRGECFDFLRPHGFVRTTEALQTFINEHDLDALKRRDPLTAVRSLSETIYGAFEYQPGVTDADSPIDLTLSAGRGVCQDFAHIMLAVCRGWGVPARYVSGYLFTDRDAGDRSDPDATHAWVEVFLPSLRWVGFDPTNNMMAGERHVAVAVGRDYADVTPSRGVYKGDAESQLAVGVSVRRARAALAEPEFLRMARPSFAGGRRRHDTALREELHQQQQQQQ
MGSDKIHHHHHHMLLVENFDLRATMEQPTSFDEMWGTSGSLREPYREFHDWFGSEDPARLRKKQRDADKLFRLTGITFNVYGKAEAEERLIPFDIIPRIISGSEWARLSRGIEQRVRAINAFLYDIYHKQEIVKAGRIPKEMISRNDAFLPHMIGVEPPGGVYTHIVGIDLVRTGPGEFYVLEDNARTPSGVSYMLENRETMLQMFPELFSQNRVQPVSNYPTDLRRSLAASAPQSCTGKPVVAVLTPGIYNSAYFEHAFLADKMGVELVEGQDLRVIDGRVAMRTTRGYKPIDVLYRRVDDEFLDPLNFNPESALGVPGIMDVYRAGNITIANAPGTGIADDKAIYSYMPEIVEFYTGERPLLQNVQTWRCSEPDALAYVLDNLEDLVVKEVHGSGGYGMLIGPTASKKDLAAFRRKLKARPGNYIAQPTLALSTVPIFSRAGLSPRHVDLRPFVLCSPNKVHITPGGLTRVALKKGSLVVNSSQGGGTKDTWVLED
MGSDKIHHHHHHMLMPDAPSNTESLPTSVDLAGEYQASGVAEILDELDRELVGLKPVKQRIRETAALLLVERARRAMGLSHEPPSLHMSFTGNPGTGKTTVALRMANLLHRLGYIRKGHLVSVTRDDLVGQYIGHTAPKTKEILKKAMGGVLFIDEAYYLYRPDNERDYGQEAIEILLQVMENNRDDLVVILAGYADRMDRFFESNPGFRSRIAHHIDFPDYDNGELLSIAESMLSRQGYRFDSKASAVMSDYIARRRRQPHFANARSIRNALDRARLRQANRLFEESAGPVDAEQLSTITARDIAASRVFATVEPSHTETSP
MGSDKIHHHHHHMLNQQWLATFVTLVEVGHFTHTANKLFMTQPGVSQHIKKLEEQVGVHLLLRKGKRFELTEAGAILYQHARQYQLAETELLARLQTDNTYVGECRFGCSGAIASLLYPHFLERQIQYPELCVKIEAAPNQRIVSGILTNQLDMGIVTKRGEEADLTYQALGYAELSLVLPSQYLVDKIGIELLEQIGFIDHPDGDYYLQQVLQANFGGRAPMVNSRTGSPVKAHTMAFTHHIRRTGYVNQLSQILLPVAKGLGFTVLPLSTVNAFMPRESLWAVDLEQKVQESLYLVHKSTRPLPSRFDAFIEMAARLIAN
MGSDKIHHHHHHMLNSMRINAFVKFQFPDDLLLNSNLVYGMVNGSTYEREIRDILGGREQAVKKYASKIPEKSDAIMSLIESPFYVTRSAGSFGADVIAIRHDFSMVIEVKSSVRPYLMFSEGSGKKQEQANRINEMCTKAGIFLTYAYRIKNVQGDPWKLFVVESKPIGRFSMVYELIPKIAKTREGNYIMKWEDGLPLSSFIEIINKKII
MGSDKIHHHHHHMLRIFQGRPAVTIAAVLVAASVAGCAGKAKKPTLVYEERPVELLYSTGADRLDRGNWNEAVDYFREVERQHPYSEWSRRSILMTGYAHYMGNQYAEAIGDADRFISLYPGNPSAQYAFYLKAICYFEQIVDVNRDQAATEQALAALRDVVQRYPNTEYATDARLKIDMVNDQLAGKEMAIGRWYLKNGQTLAAIGRFKAVIERHQTTSHTPEALFRLVEAYLTIGLNEEAKRNGAVLGYNFPGDRWYVDAYRLLNDNGLRPAVEPLKAGAKRNALERILSKDKEATLAPPGERKAKKGLLGPLGM
MGSDKIHHHHHHMLRKSLILVLTGALTGLFSSISQGAETLSVATDAIAADFYPATQAGPQYGVLVLGGAEGGKPESLAKAIAHEGHPVLSLAYFNDKGLPQELEQIPLEYFAKAKVWLLNQANVRQDGLILVGWSKGAELSLLLASQDPLFSKVVAIAPSSVIWAGFLKDWTKTPSSSWTQGGKALDFVPFRPTGEVKGLLDLYSQSLQNAKAGQGRIPVENIKGDVVLLTGSNDEIWPSNLMAKALCQRMDTAGTQGSCTHINFEGLDHLLGEKFLDSNDAMHKQFMGFLEAE
MGSDKIHHHHHHMLTCNGSKTFQTFIKAVTDLINSNLLEDQMVCGIEKLLEELLEKKTWLPLEKQKANSAQYARHLLYEDPLNRFEVLALVWKDGQSTPLHDHDGTWGVEGVFTGRIMVQNFIQTKQLENSLVYLTHTGNLYLGEGETDKVIPPADCHILEIDDNESVVTIHVYGKRLEKFKVYVPTKEKNVYTCETKYIRYNS
MGSDKIHHHHHHMLTQLQCPSCGGRLLSNKEGRNSILCQSCKKEFSAREGVLCFVPDNVFTQLDNIDYDKHYSISDESSQQAFASLKGVLGNRLKNNYGVLLEIGAGTGGFTKGLLTNIKVNRAIVTDISPKMLSICRKRVLGESHLADDVIFATYSTGENILPSNSIDCIIGSFVLHHILDYKSFIRKSYDLLKKDGAFIFSEPCYKFHDALVLTMSEILETLIGEGDNSEVDLTRLSNWIHELHFNLKYVGDQDVLSGREDKHLFIRSEVENSAFDVGFELVEILPYGDPDAINQCLLSYLPQLDLSHIFLQKVSNLFDLYHIKYFGLIEREDAVPAYVFFFKKKMNLFSRLFKNV
MGSDKIHHHHHHMLYRTNPKNGDKLSILGFGAMRLPTKEDGSIDEEKATKMVRYAIDNGVNLVDTAWPYHMGECEPFLARALSEGYREKVKLSTKLPTWAVNTREDMDKFLNAQLEKLNTKQIDYYLLHTLTKASWAKIKDLGVIDFLNSAKEDGRIKNAGFSYHGMQEDFAPIVDDYNWDFCLIQYNYLDEKVQAGTKGLKYAASKGLGVFVMEPLRGGNLAGKTPEEVMEIWNKADKKRTTVEWALRWVWNHPEVTSVLSGMTEPEQLEENIKIAEEGYPNSLTQKELGLIEQAALKYGELLKINCTGCGYCMPCPANVDIPTCFGIYNNLHMFHDETQRFQYFATLSDIFWTNEPHFASQCTNCGICIEKCPQYIQIPEMLEKVVAEFEGPDNDEKMAMVKSVFKM
MGSDKIHHHHHHMMAVLHRSSDIIAATICRILIPQFYSDNTVPINGNYSCIFLLSYMFPLDSPLLADLYKKYRSRLISRIARLTGCRETAADLAQDAYMRLLDQTGVACPSNPAAYLFRIGRNLAIDHQRRPDFRQHDETSFEEELPSSFSGLDQQAVYRQECEQLWTAIMELPRPVSRALVLSVIEGVSQAAIAEELGVTERTVRRYISKGMAHCQRRLRNPLPPARYDR
MGSDKIHHHHHHMMKYIFRTFSCGSGDCIFLILKSGDYTLNLMIDCGKYTEEIDEYVRNSLKNKIDYLIVTHIDNDHINGLIKMLTQNPDLIIEHIIYNCYQRVINNEQPWTEQMKANVDRLYDQLPIVIDMLSQNVNEEKALTLAECILRKEEWRRAWQREYITDESPAIQLANNMGRIIFLSPSQVALDRLDVKYRKLFWQQLYKQKTEDYDGEETIYEALMRIAQLEEGEETKDENVNDDTINEQILKRYASRPLSKMDDNNIASIAFIWEYQGHRILLMGDADPEQVSNAIEKVYKDETKPVIFDLIKVSHHGSAHSTSCGLMDVIDSERFFFTGGGKERPSLQTLGRIIIRPLPNGIAYRDIRYNRPNEILNKLANLSVDEKGSLHIRVNHNENGYEVSC
MGSDKIHHHHHHMMPVRQTLSKPDIQLSYLEWNQGQEPLLLLHGLGDHALVWSSLGDYLAADYHIVAPDMRGHGESTKPERDYTFESAIADLEALMDHLGWTSAQIVSHSWTGKLAAIWARQNRKRLRSIILVDPIFIWKMPSLLRLTFPMLYRFLPFLKSMGPFTSHEEAEQQARQLKQYQGWSSLQEQVFQAGIEQKPDGSWGSKFTIAARDEIFEAVMQVPGFTIPLDIQALFIQPEQGLNRQDWQIQPYKTYLKKLRICQVPGNHWPFLTQPETFNQTVAAFLAEHR
MGSDKIHHHHHHMMQGFLLQTQSIRDEDLIVRVLTKNQLKTLYRFYGKRHSVLNVGRKIDFEEENDDKFLPKLRNILHLGYIWEREMERLFFWQRFCALLFRHLEGVHSLDSVYFDTLDDGANKLAKQHPLRVILEMYATLLNFEGRLQSYNSCFLCDAKLERSVALAQGFILAHPSCLKAKSLNLEKIQAFFRTQSTIDLETEEVEELWRTLNLGF
MGSDKIHHHHHHMMRENLAYLEPPLRIAILSQGPQLYSTKRLVEAAQARGHDVHIINPLKCYMNINMRQPSIHIAGKELPQFDAVIPRIGASITFYGSAVLRQFEMMGVYTINDSVGISRSRDKLRSMQLLSRKGIGLPITGFANKPSDIPDLIDMVGGAPLVVKLLEGTQGIGVVLAETRKAAESVLEAFMGLKANIMVQEYIKEANGADIRCFVLGDKVIAAMKRQAKAGEFRSNLHRGGTATLVKLSPEERTTAIRAAKTMGLSLAGVDLLRSNHGPVVMEVNSSPGLEGIEAATQKDVANAIIEFIEKNANKAKS
MGSDKIHHHHHHMMSAVADIQECRDFLAAHPQVKFVEVFFTSMTGVPRGKRLRVHELEAIYEYGRFLPGSVLVVDTNGADCEDTGLVWEDGDADRRARPVPGTLTLAPWLGPDVAQVMLSLYELDGTPNDLDPRHVLQRVLDRYAADGLTPVAACELEYYLVDLQRGPNGELLPAKSLQTGLRPTGIQVYGLPELEAHAPFLRELWDVADTLGVPLEGAISEFAPAQVELTLKHKPDALRAADDAVLYKRAAKGVALRHGMEATFMAKPWSDRAGNGFHVHLSVNDAAGNNLCASEDIEGSDLLKHAIGGMKVLLGEGMAILAPNANSYRRFKANSYAPVAPTWGVNNRTVSLRVPAGPPKTRHVEHRVAGADGNPYLVLAVLLASAHHGITNKIDPGPAVIGDGYAAAAKENIRLPNNWFAAVDLFEQSSVLRDYLGDRFVDMFVSVKRTEQARFFEVVTELDFDWYLRNA
